Source: article PMC12096439, “Ion-DNA Interactions as a Key Determinant of Uracil DNA Glycosylase Activity”

Molecular target: UNG2-Fluor (human, UniProt P13051 =C+1-313, C141A;C166A;C290A;internal_change)
Experiment: fluorescence quenching titration; 1 mM MgCl2; 10 mM Tris-Cl, 0.1 mM EDTA, pH 8.0, 2 mM NaCl carry-over, MgCl2 varied, 22 C, 50 nM UNG2-Fluor; ex 495 nm, em 520 nm
Conditions: protein: recombinant; tags: N-terminal fluorescein (maleimide on added Cys); label: 5' Iowa Black FQ; single strand

Sequence of UNG2-Fluor (P13051 other isoform, or with tags, fused parts or gaps C141A;C166A;C290A;): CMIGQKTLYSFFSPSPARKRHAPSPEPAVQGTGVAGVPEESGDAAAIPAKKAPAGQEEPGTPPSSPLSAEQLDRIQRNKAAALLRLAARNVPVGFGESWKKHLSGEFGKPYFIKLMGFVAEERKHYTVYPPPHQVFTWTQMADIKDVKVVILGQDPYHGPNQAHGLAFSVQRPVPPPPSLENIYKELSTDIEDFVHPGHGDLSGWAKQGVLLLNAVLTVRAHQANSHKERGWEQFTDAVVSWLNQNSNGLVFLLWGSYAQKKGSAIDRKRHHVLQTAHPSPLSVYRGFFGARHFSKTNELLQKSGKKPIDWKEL

Binder TCAGGTGAATCGATAGCTAAGAGCATG (ssDNA) [27 nt dark quencher ssDNA] has a Kd of 3 nM.

With CGATAG (ssDNA) [6 nt dark quencher ssDNA] the Kd was 1000 nM.
